Test results published in patent US20050064507.

Tests used:
[1] = target: T1, ARHGAP4 peptide PLRKSSLKKGGR (SEQ ID NO:193) (not fully specified)
T1 chain: PLRKSSLKKGGR

[2] = target: T2, BCL10 peptide SCRTSSRKRAGK (SEQ ID NO:216) (not fully specified)
T2 chain: SCRTSSRKRAGK

[3] = target: T3, BRCA1 peptide LRRKSSTRHIHA (SEQ ID NO:187) (not fully specified)
T3 chain: LRRKSSTRHIHA

[4] = target: T4, BTK peptide ERGRRGSKKGSI (SEQ ID NO:188) (not fully specified)
T4 chain: ERGRRGSKKGSI

[5] = target: T5, BTK peptide PGSSHRKTKK (SEQ ID NO:195) (not fully specified)
T5 chain: PGSSHRKTKK

[6] = target: T6, CDC2L5 peptide RHSRSRSRHRLS (SEQ ID NO:213) (not fully specified)
T6 chain: RHSRSRSRHRLS

[7] = target: T7, CDC2L5 peptide SRRRSPSYSRHS (SEQ ID NO:214) (not fully specified)
T7 chain: SRRRSPSYSRHS

[8] = target: T8, CHD1 peptide EGRRSRSRRYSG (SEQ ID NO:205) (not fully specified)
T8 chain: EGRRSRSRRYSG

[9] = target: T9, CLK2 peptide RRRRRRSRTFSR (SEQ ID NO:177) (not fully specified)
T9 chain: RRRRRRSRTFSR

[10] = target: T10, CXCR4 peptide VSRGSSLKILSK (SEQ ID NO:212) (not fully specified)
T10 chain: VSRGSSLKILSK

[11] = target: T11, DAP-kinase 1 peptide KKRRTKSSRRGV (SEQ ID NO:175) (not fully specified)
T11 chain: KKRRTKSSRRGV

[12] = target: T12, DOCK2 peptide VKLRRSKKRTKR (SEQ ID NO:170) (not fully specified)
T12 chain: VKLRRSKKRTKR

[13] = target: T13, FLJ20719 peptide RRGRRSTKKRRR (SEQ ID NO:171) (not fully specified)
T13 chain: RRGRRSTKKRRR

[14] = target: T14, GRK6 peptide GNRKGKSKKWRQ (SEQ ID NO:192) (not fully specified)
T14 chain: GNRKGKSKKWRQ

[15] = target: T15, HePTP peptide EQQRRALSFRQ (SEQ ID NO:200) (not fully specified)
T15 chain: EQQRRALSFRQ

[16] = target: T16, IDN3 peptide VRRRRSQRISQR (SEQ ID NO:172) (not fully specified)
T16 chain: VRRRRSQRISQR

[17] = target: T17, IDN3 peptide VSRPRKSRKRVD (SEQ ID NO:208) (not fully specified)
T17 chain: VSRPRKSRKRVD

[18] = target: T18, Lyp peptide ILRPSKSVKLRS (SEQ ID NO:197) (not fully specified)
T18 chain: ILRPSKSVKLRS

[19] = target: T19, MAST3 peptide ARRSKRSRRRET (SEQ ID NO:183) (not fully specified)
T19 chain: ARRSKRSRRRET

[20] = target: T20, MAST4 peptide VRRSKKSKKKES (SEQ ID NO:203) (not fully specified)
T20 chain: VRRSKKSKKKES

[21] = target: T21, NKTR peptide RSRSYSRSRSR (SEQ ID NO:211) (not fully specified)
T21 chain: RSRSYSRSRSR

[22] = target: T22, PCTK2 peptide KKFKRRLSLTLR (SEQ ID NO:185) (not fully specified)
T22 chain: KKFKRRLSLTLR

[23] = target: T23, PSCDBP peptide FLRRSSSRRNRS (SEQ ID NO:180) (not fully specified)
T23 chain: FLRRSSSRRNRS

[24] = target: T24, SOLH peptide PLRRRESMHVEQ (SEQ ID NO:210) (not fully specified)
T24 chain: PLRRRESMHVEQ

[25] = target: T25, TIAM1 peptide AMSRSASKRRSR (SEQ ID NO:168) (not fully specified)
T25 chain: AMSRSASKRRSR

[26] = target: T26, WNK1 peptide KRHYRKSVRSRS (SEQ ID NO:179) (not fully specified)
T26 chain: KRHYRKSVRSRS

[27] = target: T27, WNK1 peptide RRRRHTMDKDSR (SEQ ID NO:190) (not fully specified)
T27 chain: RRRRHTMDKDSR

[28] = target: T28, absent in melanoma 1 peptide RSGRRRGSQKS (SEQ ID NO:173) (not fully specified)
T28 chain: RSGRRRGSQKS

[29] = target: T29, beta-arrestin2 peptide HKRNSVRLVIR (SEQ ID NO:191) (not fully specified)
T29 chain: HKRNSVRLVIR

[30] = target: T30, casein kinase I gamma 2 peptide KRRKRKSLQRHK (SEQ ID NO:194) (not fully specified)
T30 chain: KRRKRKSLQRHK

[31] = target: T31, forkhead (Drosophila)-like 16 peptide RRERSRSRRKQ (SEQ ID NO:176) (not fully specified)
T31 chain: RRERSRSRRKQ

[32] = target: T32, gap-43 peptide SFRGHITRKKLK (SEQ ID NO:207) (not fully specified)
T32 chain: SFRGHITRKKLK

[33] = target: T33, myosin IF peptide KKERRRNSINRN (SEQ ID NO:174) (not fully specified)
T33 chain: KKERRRNSINRN

[34] = target: T34, peptide EEAEHKATKARLADK (SEQ ID NO:75) (not fully specified)
T34 chain: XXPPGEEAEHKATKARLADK

[35] = target: T35, prostaglandin E receptor 4 peptide DFRRRRSFRRIA (SEQ ID NO:186) (not fully specified)
T35 chain: DFRRRRSFRRIA

[36] = target: T36, ribosomal protein S6 peptide TGERKRKSVRG (SEQ ID NO:181) (not fully specified)
T36 chain: TGERKRKSVRG

[37] = target: T37, supervillin peptide VMKRKFSLRAAE (SEQ ID NO:202) (not fully specified)
T37 chain: VMKRKFSLRAAE

B1: PKC-theta (protein)
chain: MSPFLRIGLSNFDCGSCQSCQGEAVNPYCAVLVKEYVESENGQMYIQKKPTMYPPWDSTFDAHINKGRVMQIIVKGKNVDLISETTVELYSLAERCRKNNGKTEIWLELKPQGRMLMNARYFLEMSDTKDMNEFETEGFFALHQRRGAIKQAKVHHVKCHEFTATFFPQPTFCSVCHEFVWGLNKQGYQCRQCNAAIHKKCIDKVIAKCTGSAINSRETMFHKERFKIDMPHRFKVYNYKSPTFCEHCGTLLWGLARQGLKCDACGMNVHHRCQTKVANLCGINQKLMAEALAMIESTQQARCLRDTEQIFREGPVEIGLPCSIKNEARPPCLPTPGKREPQGISWESPLDEVDKMCHLPEPELNKERPSLQIKLKIEDFILHKMLGKGSFGKVFLAEFKKTNQFFAIKALKKDVVLMDDDVECTMVEKRVLSLAWEHPFLTHMFCTFQTKENLFFVMEYLNGGDLMYHIQSCHKFDLSRATFYAAEIILGLQFLHSKGIVYRDLKLDNILLDKDGHIKIADFGMCKENMLGDAKTNTFCGTPDYIAPEILLGQKYNHSVDWWSFGVLLYEMLIGQSPFHGQDEEELFHSIRMDNPFYPRWLEKEAKDLLVKLFVREPEKRLGVRGDIRQHPLFREINWEELERKEIDPPFRPKVKSPFDCSNFDKEFLNEKPRLSFADRALINSMDQNMFRNFSFMNPGMERLIS
in vitro phosphorylation (% of best substrate) [1]: 35
in vitro phosphorylation (% of best substrate) [2]: 11
in vitro phosphorylation (% of best substrate) [3]: 48
in vitro phosphorylation (% of best substrate) [4]: 44
in vitro phosphorylation (% of best substrate) [5]: 33
in vitro phosphorylation (% of best substrate) [6]: 13
in vitro phosphorylation (% of best substrate) [7]: 13
in vitro phosphorylation (% of best substrate) [8]: 22
in vitro phosphorylation (% of best substrate) [9]: 66
in vitro phosphorylation (% of best substrate) [10]: 13
in vitro phosphorylation (% of best substrate) [11]: 80
in vitro phosphorylation (% of best substrate) [12]: 98
in vitro phosphorylation (% of best substrate) [13]: 92
in vitro phosphorylation (% of best substrate) [14]: 35
in vitro phosphorylation (% of best substrate) [15]: 26
in vitro phosphorylation (% of best substrate) [16]: 86
in vitro phosphorylation (% of best substrate) [17]: 17
in vitro phosphorylation (% of best substrate) [18]: 32
in vitro phosphorylation (% of best substrate) [19]: 55
in vitro phosphorylation (% of best substrate) [20]: 24
in vitro phosphorylation (% of best substrate) [21]: 16
in vitro phosphorylation (% of best substrate) [22]: 51
in vitro phosphorylation (% of best substrate) [23]: 65
in vitro phosphorylation (% of best substrate) [24]: 16
in vitro phosphorylation (% of best substrate) [25]: 100
in vitro phosphorylation (% of best substrate) [26]: 65
in vitro phosphorylation (% of best substrate) [27]: 40
in vitro phosphorylation (% of best substrate) [28]: 85
in vitro phosphorylation (% of best substrate) [29]: 38
in vitro phosphorylation (% of best substrate) [30]: 34
in vitro phosphorylation (% of best substrate) [31]: 66
in vitro phosphorylation (% of best substrate) [32]: 18
in vitro phosphorylation (% of best substrate) [33]: 83
Peptide phosphorylation by PKC-theta [34]: 0
in vitro phosphorylation (% of best substrate) [35]: 50
in vitro phosphorylation (% of best substrate) [36]: 62
in vitro phosphorylation (% of best substrate) [37]: 24
